According to publication PMC8133395 (Cell reports, 2021):
Residue numbers refer to the chain shown, from its start.

B1: EBOV-237 (recombinant IgG1) (antibody, V domains shown)
VH: QVQLQESGPGLVKPSGTLSLTCAVSGGSISNGIWWSWVRQPPGKGLEWIGEIYHSGSTNYSPSLKSRVTISLDKSKNQFSLKLNSVTAADTAVYYCARAPSQFDFSDWLVPQGAMFRGHYIDYWGQGTLVTVSS
VL: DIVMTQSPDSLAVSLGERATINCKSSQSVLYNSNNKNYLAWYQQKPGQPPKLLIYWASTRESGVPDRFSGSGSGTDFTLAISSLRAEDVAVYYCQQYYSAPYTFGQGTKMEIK
notes: IgG1; source: ExpiCHO, transiently transfected, purified (HiTrap MabSelect Sure)
B2: EBOV-293 (recombinant IgG1) (antibody, V domains shown)
VH: QVQLVQSGAEVKKPGSSVKVSCKASGGTFIDYTYNWVRQAPGQGLVWMGRVVPGLGLSSYAQQFEDRVTITAAKSTSTVYMELRGLTSEDTAMYYCARDTASFGWLPFAFWGQGTLVTVSS
VL: QTVMTQSPGTLSLSPGERATLSCGVSQSISSTYFAWYQQKVGQAPRLLIYGASNRASGIPDRFSGSASGTDFTLTISRVEPEDFAVYYCQQYGSSPTFGQGTRLEIK
notes: source: FreeStyle-293-F, transiently transfected, purified (mAb Select, SEC)
B3: BDBV-329 (recombinant IgG1) (antibody, V domains shown)
VH: QVQLVQSGAEVKKPGSSVKVSCKASGGTFDTYAISWVRQAPGQGLEWMGGIIPVLGIVDYAQKFQGRVTITAAKFTNIAYMELSSLRSEDAAVYYCARGLRSLSPRGQEGPTPAPGWRRAQYHYYYMDVWGTGTLVTVSS
VL: EIVMTQSPGTLSLSPGERATLSCRASQSVSSNYLAWYQQKPGQAPRLLIYGASSRATGIPDRFSGSGSGPDFTLTISRLEPEDFAVYYCQQYGSSPGTFGGGTKVEIK
notes: IgG1; also called BDB-329; source: ExpiCHO, transiently transfected, purified (HiTrap MabSelect Sure)
B4: EBOV-437 (recombinant IgG1) (antibody, V domains shown)
VH: QVQLVQSGAEVKKPGSSVKVSCKASGGTFSRDIFSWVRQAPGQGLEWMGGIIPIFGTANYAQKFQGRVTITADKSTSTVFMELSGLRSEDTAVYFCARGPPLRGERSWFGESEKYDYFYMDVWGKGTTVTVSS
VL: B3 VL with E1Q, M4L, S31N, N32S, P70T, T75S, S94T, G97C, G101Q, V105L
notes: as for B1
B5: BDBV-43 (recombinant IgG1) (antibody, V domains shown)
VH: QVQLVQSGAEVKKPGSSVKVSCRASGDSFSRKYGISWVRQAPGQGFEWMGTIMPIVGLTTSAQKFQGRVTITADKSTSTAHMELNSLTSEDTAIYYCARDEIIGARPHWFDSWGQGTLVTVSS
VL: EIVMTQSPAIMSVSPGKRATLSCRASQSVSSNLAWYQRKPGQAPRLLIYGSSTRATGIPARFSGSGSGTEFTLTISSLQSEDFAVYYCLQYYNWPRTFGQGTKVEIK
notes: as for B2
B6: EBOV-296 (recombinant IgG1) (antibody, V domains shown)
VH: QVQLVESGPGLVKPSQTLSLICTVSGGSISSGDFYWSWIRQPPGKGLEWIGFFYYSGITYYNPSLKSRVSISRDTSTNQFSLKLRSVTAADTAVYYCARVRGGRITLGQGDMYYYSGMDVWGQGTLVTVSS
VL: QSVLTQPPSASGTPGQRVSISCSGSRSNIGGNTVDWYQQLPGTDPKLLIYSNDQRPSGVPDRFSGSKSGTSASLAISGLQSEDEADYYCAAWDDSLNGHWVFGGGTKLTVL
notes: as for B2
B7: BDBV-289 (recombinant IgG1) (antibody, V domains shown)
VH: QVQLVQSGAEVKKPGSSVKVSCKASGATFGSDTVTWVRQAPGQGLEWMGGIIPFFGEANYAQRFQGRVTITADKSTNTAYMELSSLRSEDTAVYFCARQINEMATFGEIHYYTYMDVWGQGTLVTVSS
VL: GSELTQDPAVSVALGQTVRITCQGDSLRNYYASWYQQKPRQAPVLVFYGKNNRPSGIPDRFSGSSSGNTASLTISGAQAEDEADYYCNSRDSSSNHLVFGGGTKLTVL
notes: IgG1; source: FreeStyle-293-F, transiently transfected, purified (mAb Select, SEC)
B8: EBOV-442 (recombinant IgG1) (antibody, V domains shown)
VH: EVQLVESGGGLVKPGGSLRLSCTGSGGTGFTFKYAGMSWVRQAPGKGPEWIGRIKSRIDGGTTDYAAPVKDRFIVSRDDSRNTLYLQMNSLKTEDTAVYYCATGSGKGPSASFGESYYYYDFINVWGKGTTVTVSS
VL: ESVLTQSPGTLSLSPGERATLSCRASQSISRKYLAWYQQKPGQAPRLLIYGSSSRATGIPDRFSGSGSGTDFTLTISRLEPEDFAVYYCHQYESSPWTFGQGTKVEIK
notes: as for B1

target: T1, EBOV sGP (Mayinga) (Zaire ebolavirus, Mayinga, GenBank …, UniProt P60170); experiment: ELISA; conditions: both partners purified
T1 construct: source: FreeStyle-293-F, transiently transfected, purified (Strep-Tactin, SEC)
T1 sequence (P60170 33-314): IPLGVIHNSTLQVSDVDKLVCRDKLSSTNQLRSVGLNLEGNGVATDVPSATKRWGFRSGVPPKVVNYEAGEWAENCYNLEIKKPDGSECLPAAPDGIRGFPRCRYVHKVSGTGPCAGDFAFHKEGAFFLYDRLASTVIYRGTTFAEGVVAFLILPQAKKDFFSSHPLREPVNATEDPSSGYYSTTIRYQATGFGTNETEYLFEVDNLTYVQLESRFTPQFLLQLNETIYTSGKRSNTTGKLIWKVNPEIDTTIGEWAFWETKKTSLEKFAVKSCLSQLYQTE

Binder | binding result
B1 | binds
B2 | binds
B3 | binds
B4 | binds
B5 | binds
B6 | binds
B7 | binds
B8 | binds
